Source: the supplement of paper PMC7877785
± gives the uncertainty stated by the source.

Assay: self-splicing fitness, log relative to wild type (ln ratio); higher = more splicing; Tetrahymena group I intron in knt gene, E. coli kanamycin selection, DiMSum; sequences stand for … in CUCUCU…GGAGGGAAAAGUUAUCAGGCAUGCACCUGGUAGCUAGUCUUUAAACCAAUAGAUUGCAUCGGUUUAAAAGGCAAGACCGUCAAAUUGCGGGAAAGGGGUCAACAGCCGUUCAGUACCAAGUCUCAGGGGAAACUUUGAGAUGGCCUUGCAAAGGGUAUGGUAAUAAGCUGACGGACAUGGUCCUAACCACGCAGCCAAGUCCUAAGUCAACAGAUCUUCUGUUGAUAUGGAUGCAGUUCACAGACUAAAUGUCGGUCGGGGAAGAUGUAUUCUUCUCAUAAGAUAUAGUCGGACCUCUCCUUAAUGGGAGCUAGCGGAUGAAGUGAUGCAACACUGGAGCCGCUGGGAACUAAUUUGUAUGCGAAAGUAUAUUGAUUAGUUUUGGAGUACUCGUGGUCG
How it was run: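 Library with all eight P1ex-region intron nucleotides randomised, intron inside the knt kanamycin-resistance gene on pET-22b(+), in E. coli BL21(DE3). Cells grew overnight at 37°C or 30°C on LB agar with or without 25 μg/mL kanamycin (plus 100 μg/mL carbenicillin, 50 μM IPTG, 0.2% rhamnose), in six replicate transformations. Pooled colonies were amplicon-sequenced on Illumina HiSeq 2500. DiMSum fitness is the error-weighted combination of wild-type-normalised replicate fold changes, kanamycin versus none.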

Sequence | self-splicing fitness (ln) (30 °C) | self-splicing fitness (ln) (37 °C)
CCGGAGCAAUAUUACGUGAU | -2.17 ± 0.19 | -1.54 ± 0.3
CCGGAGCAAUAUUACGUUCA | -1.23 ± 0.17 | -1.63 ± 0.29
CCGUAGCAAUAUUACGAACG | -1.07 ± 0.12 | -0.439 ± 0.15
CCGUAGCAAUAUUACGAAUU | -3.75 ± 0.25 | -2.85 ± 0.34
CCGUAGCAAUAUUACGAGUC | -2.86 ± 0.23 | 
CCGUAGCAAUAUUACGAUAC | -3.22 ± 0.24 | 
CCGUAGCAAUAUUACGAUCU |  | -2.46 ± 0.45
CCGUAGCAAUAUUACGAUGU | -4.42 ± 0.33 | -1.79 ± 0.18
CCGUAGCAAUAUUACGCAGA | -2.96 ± 0.25 | -2.74 ± 0.24
CCGUAGCAAUAUUACGCCUU | -3.08 ± 0.44 | -2.19 ± 0.31
CCGUAGCAAUAUUACGCGGC | -2.94 ± 0.19 | -2.51 ± 0.27
CCGUAGCAAUAUUACGGCGU | -2.57 ± 0.23 | -1.86 ± 0.25
CCGUAGCAAUAUUACGGGAG | -3.35 ± 0.19 | -2.97 ± 0.18
CCGUAGCAAUAUUACGGUCC | -4.14 ± 0.3 | -2.93 ± 0.28
CCGUAGCAAUAUUACGUAGC | -3.91 ± 0.21 | -2.63 ± 0.22
CCGUAGCAAUAUUACGUAUC |  | -2.65 ± 0.29
CCGUAGCAAUAUUACGUGGU | -4.27 ± 0.24 | -2.12 ± 0.14
CCGUAGCAAUAUUACGUUGC | -3.53 ± 0.28 | -2.04 ± 0.43
CCGUAGCAAUAUUACGUUUA | -3.43 ± 0.44 | -3.04 ± 0.4
CCUAAGCAAUAUUACGAAAA | -3.53 ± 0.28 | -2.44 ± 0.19

Sequence | self-splicing fitness (ln) (30 °C) | self-splicing fitness (ln) (37 °C)
CCUAAGCAAUAUUACGAAAC | -3.48 ± 0.33 | 
CCUAAGCAAUAUUACGAAUA | -3.51 ± 0.35 | 
CCUAAGCAAUAUUACGAUUU | -3.8 ± 0.25 | -0.794 ± 0.23
CCUAAGCAAUAUUACGCAUG | -3.6 ± 0.33 | -1.51 ± 0.23
CCUAAGCAAUAUUACGCGCG | -3.42 ± 0.39 | -1.9 ± 0.25
CCUAAGCAAUAUUACGCGUG | -3.34 ± 0.13 | -2.48 ± 0.13
CCUAAGCAAUAUUACGCUCG |  | -2.15 ± 0.3
CCUAAGCAAUAUUACGGAUA | -4.31 ± 0.26 | -4.12 ± 0.31
CCUAAGCAAUAUUACGGGGA | -2.84 ± 0.15 | -1.92 ± 0.13
CCUAAGCAAUAUUACGGUCU | -3.89 ± 0.31 | -2.94 ± 0.34
CCUAAGCAAUAUUACGGUGG | -2.76 ± 0.11 | -2.03 ± 0.14
CCUAAGCAAUAUUACGGUUA | -3.71 ± 0.16 | -2.67 ± 0.14
CCUAAGCAAUAUUACGGUUG | -3.92 ± 0.19 | -2.07 ± 0.15
CCUAAGCAAUAUUACGUAAC | -2.97 ± 0.17 | -1.77 ± 0.29
CCUAAGCAAUAUUACGUCGC | -2.21 ± 0.16 | -1.85 ± 0.2
CCUAAGCAAUAUUACGUGAA |  | -1.96 ± 0.26
CCUAAGCAAUAUUACGUGAU | -4.46 ± 0.23 | -2.71 ± 0.21
CCUAAGCAAUAUUACGUGCG | -2.59 ± 0.13 | -1.03 ± 0.12
CCUAAGCAAUAUUACGUGUU | -3.2 ± 0.14 | -3.07 ± 0.19
CCUCAGCAAUAUUACGAGAG | -2.75 ± 0.13 | -1.47 ± 0.1
